Values belong to the binder of their own block, whether it stands above or below them.
Legend:
Assay in all cases: pull-down; His:BPM proteins kept on Ni-NTA agarose beads, incubated with eluted GST-tagged proteins in 0.1 M Tris pH 7.5, 150 mM NaCl, 0.5% NP-40, PMSF, 2 h at 4°C, three washes; blots with anti-GST and anti-His
Conditions in all cases: both partners purified
His:BPM1 = target: T1, His:BPM1 (Arabidopsis thaliana, UniProt Q8L765 1-407)
T1 construct: BPM1, MATH-BTB/POZ protein, Arabidopsis thaliana; cloned into pET21b (NdeI/XhoI); pET21b usually adds a C-terminal His6 tag (surmised); also called His-tagged BPM1; source: E. coli, purified on Ni-NTA agarose beads (remained on the beads)
T1 sequence (looked up): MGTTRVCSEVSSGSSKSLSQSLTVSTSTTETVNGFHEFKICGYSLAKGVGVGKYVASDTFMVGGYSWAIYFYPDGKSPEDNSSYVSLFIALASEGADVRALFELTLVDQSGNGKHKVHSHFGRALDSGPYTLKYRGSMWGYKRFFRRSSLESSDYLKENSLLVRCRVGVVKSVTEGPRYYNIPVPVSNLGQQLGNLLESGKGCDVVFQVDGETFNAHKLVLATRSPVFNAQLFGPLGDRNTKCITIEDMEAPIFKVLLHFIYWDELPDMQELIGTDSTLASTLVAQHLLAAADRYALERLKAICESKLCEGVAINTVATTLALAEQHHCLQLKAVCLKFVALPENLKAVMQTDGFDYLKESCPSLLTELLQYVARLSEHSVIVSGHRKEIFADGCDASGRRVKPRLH

His:BPM5 = target: T2, His:BPM5 (Arabidopsis thaliana, UniProt Q1EBV6 1-410)
T2 construct: BPM5, MATH-BTB/POZ protein, Arabidopsis thaliana; cloned into pET21b (NdeI/XhoI); pET21b usually adds a C-terminal His6 tag (surmised); also called His-tagged BPM5; source: E. coli, purified on Ni-NTA agarose beads (remained on the beads)
T2 sequence (looked up): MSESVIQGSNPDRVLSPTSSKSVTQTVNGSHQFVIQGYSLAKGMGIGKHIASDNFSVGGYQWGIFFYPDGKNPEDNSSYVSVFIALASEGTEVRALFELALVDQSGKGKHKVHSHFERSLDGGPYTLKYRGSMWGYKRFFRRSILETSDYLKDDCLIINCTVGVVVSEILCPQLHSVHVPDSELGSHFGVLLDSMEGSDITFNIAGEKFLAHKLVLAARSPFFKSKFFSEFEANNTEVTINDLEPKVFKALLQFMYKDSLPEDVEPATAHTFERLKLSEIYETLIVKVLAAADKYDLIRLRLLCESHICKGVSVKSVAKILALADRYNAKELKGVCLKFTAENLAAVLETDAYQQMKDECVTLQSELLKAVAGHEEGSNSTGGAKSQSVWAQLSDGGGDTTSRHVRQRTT

His:BPM3 = target: T3, His:BPM3 (Arabidopsis thaliana, UniProt O22286 1-408)
T3 construct: BPM3, MATH-BTB/POZ protein, Arabidopsis thaliana; cloned into pET21b (NdeI/XhoI); pET21b usually adds a C-terminal His6 tag (surmised); also called His-tagged BPM3; source: E. coli, purified on Ni-NTA agarose beads (remained on the beads)
T3 sequence (looked up): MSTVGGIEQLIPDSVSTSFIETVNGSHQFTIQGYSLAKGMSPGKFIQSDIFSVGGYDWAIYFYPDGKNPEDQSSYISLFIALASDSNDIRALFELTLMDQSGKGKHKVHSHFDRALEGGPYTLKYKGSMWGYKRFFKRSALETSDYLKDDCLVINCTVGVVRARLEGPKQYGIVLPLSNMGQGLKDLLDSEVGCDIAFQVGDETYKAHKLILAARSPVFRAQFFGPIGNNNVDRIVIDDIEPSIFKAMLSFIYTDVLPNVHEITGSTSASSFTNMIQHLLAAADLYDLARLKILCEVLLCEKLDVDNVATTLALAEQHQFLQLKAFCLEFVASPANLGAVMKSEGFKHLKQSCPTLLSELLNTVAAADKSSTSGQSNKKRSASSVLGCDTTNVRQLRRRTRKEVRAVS

binding result (His:BPM1): binds
binding result (His:BPM5): binds
binding result (His:BPM3): binds
B1: GST:MYB25 (natural protein)
chain: not shown
notes: MYB25, Arabidopsis thaliana, At2g39880, 367 AA; cDNA in pDEST15; GST fusion ~67.8 kDa; also called GST-tagged MYB25; source: E. coli, purified (glutathione agarose beads), eluted; not shown: GST, N-terminal, kept

binding result (His:BPM1): binds
binding result (His:BPM5): binds
binding result (His:BPM3): binds
B2: GST:MYB1 (natural protein)
chain: not shown
notes: MYB1, Arabidopsis thaliana, At3g09230, 393 AA; cDNA; GST fusion ~69.7 kDa; Two GST constructs of MYB1 are described (pDEST15 by Gateway; pHB2-GST from the clone DKLAT3G09230); also called GST-tagged MYB1; source: E. coli, purified (glutathione agarose beads), eluted; not shown: GST, N-terminal, kept
